Laboratory results: PMC9757060 (Nucleic Acids Research, 2022)
Substitutions are numbered along the chain they refer to. Numbers in names are those of the source. One block for each molecule: values may come before it.

Legend:
Assay in all cases: ITC
[1] = target: mouse UHRF1 PHD finger (residues 304–372) (mouse) (UniProt Q8VDF2)
[2] = target: T1, mouse UHRF1 PHD finger (residues 304–372) (mouse, UniProt Q8VDF2 304-372)
T1 sequence (looked up): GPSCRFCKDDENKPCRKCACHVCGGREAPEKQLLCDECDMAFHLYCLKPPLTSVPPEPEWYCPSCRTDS

[3] = target: T2, mouse UHRF1 PHD finger (residues 304–372) L337A (mouse, UniProt Q8VDF2 304-372, L337A)
T2 sequence (looked up): T1 sequence (looked up) with L34A

- Kd [2]: 0.045 µM
Molecule: KRRVRTLLSVLKDPIAKMRRLVRIEQRQKRLEGN (peptide, UniProt Q8QZY3 85-118, looked up) [mDPPA3 residues 85–118]

- Kd [2]: 0.361 µM
B2: mDPPA3 76–128W R89A (domain or fragment, mouse)
chain: RREVQSAFPKRRVATLLSVLKDPIAKMRRLVRIEQRQKRLEGNEFERDSEPFW

- Kd [2]: 1.08 µM
B4: mDPPA3 76–128W L91A/V94A (domain or fragment, mouse)
chain: B2 chain with A14R, L16A, V19A

The next lines start with the molecule.

Molecule: N-terminal tail of PAF15 (PCNA-associated factor 15) (peptide)
- Kd [1]: 3.52 µM

B1: mDPPA3 residues 76–127 followed by an additional Trp (mDPPA3 76–128W) (domain or fragment, mouse)
chain: B2 chain with A14R
- Kd [3]: > 43 µM
- Kd [2]: 0.0277 µM

B3: mDPPA3 76–128W R104A (domain or fragment, mouse)
chain: B2 chain with A14R, R29A
- binding result [2]: binds
